According to patent publication US20070207158A1 (BOARD OF REGENTS OF THE UNIVERSITY OF OKLAHOMA, published 2007):

Columns and labels:
[1] = biological target: T1, urokinase receptor on MCF-7 human breast cancer cells (human, UniProt Q03405 23-305); test: immunocytochemistry of MCF-7 cells with anti-L-methioninase antibody, 18 h treatment
T1 construct: whole, on cells; also called uPA receptor; urokinase receptors

[2] = biological target: T1, urokinase receptor on MCF-7 human …; test: displacement assay on MCF-7 cells (summary of Example 1)

T1 sequence (Q03405 23-305): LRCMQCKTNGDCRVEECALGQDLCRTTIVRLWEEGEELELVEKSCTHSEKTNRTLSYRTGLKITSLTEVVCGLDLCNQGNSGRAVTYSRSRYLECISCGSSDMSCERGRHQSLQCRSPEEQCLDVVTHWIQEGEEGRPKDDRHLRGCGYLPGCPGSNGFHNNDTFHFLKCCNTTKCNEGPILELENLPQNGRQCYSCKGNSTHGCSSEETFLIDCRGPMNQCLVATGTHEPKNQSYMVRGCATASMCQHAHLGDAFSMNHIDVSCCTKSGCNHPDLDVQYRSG

B1: L-methioninase from Pseudomonas putida (enzyme)
chain: MRDSHNNTGFSTRAIHHGYDPLSHGGALVPPVYQTATYAFPTVEYGAACFAGEEAGHFYSRISNPTLALLEQRMASLEGGEAGLALASGMGAITSTLWTLLRPGDELIVGRTLYGCTFAFLHHGIGEFGVKIHHVDLNDAKALKAAINSKTRMIYFETPANPNMQLVDIAAVVEAVRGSDVLVVVDNTYCTPYLQRPLELGADLVVHSATKYLSGHGDITAGLVVGRKALVDRIRLEGLKDMTGAALSPHDAALLMRGIKTLALRMDRHCANALEVAQFLAGQPQVELIHYPGLPSFAQYELAQRQMRLPGGMIAFELKGGIEAGRGFMNALQLFARAVSLGDAESLAQHPASMTHSSYTPQERAHHGISEGLVRLSVGLEDVEDLLADIELALEACA
notes: also called free L-methioninase
- binding result [1]: no binding (tested: 10^-6 M)

B2: ATF-methioninase fusion protein (other)
chain: SNELHQVPSNCDCLNGGTCVSNKYFSNIHWCNCPKKFGGQHCEIDKSKTGSGSGSRDSHNNTGFSTRAIHHGYDPLSHGGALVPPVYQTATYAFPTVEYGAACFAGEEAGHFYSRISNPTLALLEQRMASLEGGEAGLALASGMGAITSTLWTLLRPGDELIVGRTLYGCTFAFLHHGIGEFGVKIHHVDLNDAKALKAAINSKTRMIYFETPANPNMQLVDIAAVVEAVRGSDVLVVVDNTYCTPYLQRPLELGADLVVHSATKYLSGHGDITAGLVVGRKALVDRIRLEGLKDMTGAALSPHDAALLMRGIKTLALRMDRHCANALEVAQFLAGQPQVELIHYPGLPSFAQYELAQRQMRLPGGMIAFELKGGIEAGRGFMNALQLFARAVSLGDAESLAQHPASMTHSSYTPQERAHHGISEGLVRLSVGLEDVEDLLADIELALEACA
notes: also called FP
- binding result [2]: binds
